The target in assay [1] is T1, B subunit of Enterococcus hirae V-ATPase, wild type (Enterococcus hirae, UniProt Q08637 1-458).
T1 construct: B subunit of Enterococcus hirae V-ATPase; synthetic gene with E. coli codon usage in pET23d; also called B monomer; source: E. coli BL21 (DE3), purified
T1 sequence (looked up): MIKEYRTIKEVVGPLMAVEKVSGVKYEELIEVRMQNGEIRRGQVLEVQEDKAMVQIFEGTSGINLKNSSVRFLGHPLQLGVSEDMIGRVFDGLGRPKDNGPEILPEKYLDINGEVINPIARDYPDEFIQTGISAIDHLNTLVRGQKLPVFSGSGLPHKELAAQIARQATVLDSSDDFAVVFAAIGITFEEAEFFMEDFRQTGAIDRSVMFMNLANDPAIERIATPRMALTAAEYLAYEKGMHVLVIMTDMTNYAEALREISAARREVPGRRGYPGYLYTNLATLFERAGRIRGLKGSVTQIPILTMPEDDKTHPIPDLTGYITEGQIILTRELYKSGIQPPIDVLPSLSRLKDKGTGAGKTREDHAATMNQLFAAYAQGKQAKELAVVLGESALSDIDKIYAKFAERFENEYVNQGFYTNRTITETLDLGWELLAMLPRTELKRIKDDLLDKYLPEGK
The assay is described as follows: native gel or EMSA; purified A3B3 and DF complexes mixed in a 1:5 molar ratio, 1 h on ice; formation of A3B3DF (V1) confirmed by basic native-PAGE. The following applies: both partners purified. In general terms: In EMSA bound probe runs differently from free probe, usually more slowly.

Assay [2] has as its target T2, A subunit of Enterococcus hirae V-ATPase, wild type (Enterococcus hirae, UniProt Q08636 1-593).
T2 construct: A subunit of Enterococcus hirae V-ATPase; synthetic gene with E. coli codon usage in pET23d; also called A monomer; source: E. coli BL21 (DE3), purified
T2 sequence (looked up): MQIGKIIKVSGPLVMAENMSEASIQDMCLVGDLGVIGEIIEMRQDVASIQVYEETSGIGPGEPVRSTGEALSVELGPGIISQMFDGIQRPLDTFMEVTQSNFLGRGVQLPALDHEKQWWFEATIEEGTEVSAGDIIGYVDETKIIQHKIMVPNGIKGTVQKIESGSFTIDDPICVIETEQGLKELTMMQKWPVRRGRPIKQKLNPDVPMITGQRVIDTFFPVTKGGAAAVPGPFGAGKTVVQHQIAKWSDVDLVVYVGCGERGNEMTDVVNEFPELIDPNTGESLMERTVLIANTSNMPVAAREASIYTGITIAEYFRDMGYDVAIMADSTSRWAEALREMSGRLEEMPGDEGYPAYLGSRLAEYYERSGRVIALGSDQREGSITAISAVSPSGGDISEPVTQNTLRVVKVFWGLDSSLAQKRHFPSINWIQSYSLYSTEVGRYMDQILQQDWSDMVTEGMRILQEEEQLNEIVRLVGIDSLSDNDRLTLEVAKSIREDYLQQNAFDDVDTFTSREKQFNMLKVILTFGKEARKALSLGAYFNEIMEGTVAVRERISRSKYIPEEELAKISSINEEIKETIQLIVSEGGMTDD
Described as above. To be noted: both partners purified.

B1: D subunit of Enterococcus hirae V-ATPase, wild type (natural protein, UniProt P43435 1-210, looked up)
chain: MRLNVNPTRMELTRLKKQLTTATRGHKLLKDKQDELMRQFILLIRKNNELRQAIEKETQTAMKDFVLAKSTVEEAFIDELLALPAENVSISVVEKNIMSVKVPLMNFQYDETLNETPLEYGYLHSNAELDRSIDGFTQLLPKLLKLAEVEKTCQLMAEEIEKTRRRVNALEYMTIPQLEETIYYIKMKLEENERAEVTRLIKVKNMGTEE
notes: D subunit of Enterococcus hirae V-ATPase; Was never handled alone; stands here for the pairs of subunits inside the DF and A3B3DF complexes; source: E. coli cell-free protein expression system, synthesized together with F, purified
As for B1, the binding result in assay [1] and in assay [2] was “binds” each time.
